B1: Bifunctional UDP-N-acetylglucosamine 2-epimerase/N-acetylmannosamine kinase (Homo sapiens), Q9Y223 (parent)
chain: MEKNGNNRKLRVCVATCNRADYSKLAPIMFGIKTEPEFFELDVVVLGSHLIDDYGNTYRMIEQDDFDINTRLHTIVRGEDEAAMVESVGLALVKLPDVLNRLKPDIMIVHGDRFDALALATSAALMNIRILHIEGGEVSGTIDDSIRHAITKLAHYHVCCTRSAEQHLISMCEDHDRILLAGCPSYDKLLSAKNKDYMSIIRMWLGDDVKSKDYIVALQHPVTTDIKHSIKMFELTLDALISFNKRTLVLFPNIDAGSKEMVRVMRKKGIEHHPNFRAVKHVPFDQFIQLVAHAGCMIGNSSCGVREVGAFGTPVINLGTRQIGRETGENVLHVRDADTQDKILQALHLQFGKQYPCSKIYGDGNAVPRILKFLKSIDLQEPLQKKFCFPPVKENISQDIDHILETLSALAVDLGGTNLRVAIVSMKGEIVKKYTQFNPKTYEERINLILQMCVEAAAEAVKLNCRILGVGISTGGRVNPREGIVLHSTKLIQEWNSVDLRTPLSDTLHLPVWVDNDGNCAALAERKFGQGKGLENFVTLITGTGIGGGIIHQHELIHGSSFCAAELGHLVVSLDGPDCSCGSHGCIEAYASGMALQREAKKLHDEDLLLVEGMSVPKDEAVGALHLIQAAKLGNAKAQSILRTAGTALGLGVVNILHTMNPSLVILSGVLASHYIHIVKDVIRQQALSSVQDVDVVVSDLVDPALLGAASMVLDYTTRRIY

Variants of: B1
Settings: with actn1_human ACTN1, P12814
Sequence of actn1_human ACTN1, P12814 (P12814 whole entry): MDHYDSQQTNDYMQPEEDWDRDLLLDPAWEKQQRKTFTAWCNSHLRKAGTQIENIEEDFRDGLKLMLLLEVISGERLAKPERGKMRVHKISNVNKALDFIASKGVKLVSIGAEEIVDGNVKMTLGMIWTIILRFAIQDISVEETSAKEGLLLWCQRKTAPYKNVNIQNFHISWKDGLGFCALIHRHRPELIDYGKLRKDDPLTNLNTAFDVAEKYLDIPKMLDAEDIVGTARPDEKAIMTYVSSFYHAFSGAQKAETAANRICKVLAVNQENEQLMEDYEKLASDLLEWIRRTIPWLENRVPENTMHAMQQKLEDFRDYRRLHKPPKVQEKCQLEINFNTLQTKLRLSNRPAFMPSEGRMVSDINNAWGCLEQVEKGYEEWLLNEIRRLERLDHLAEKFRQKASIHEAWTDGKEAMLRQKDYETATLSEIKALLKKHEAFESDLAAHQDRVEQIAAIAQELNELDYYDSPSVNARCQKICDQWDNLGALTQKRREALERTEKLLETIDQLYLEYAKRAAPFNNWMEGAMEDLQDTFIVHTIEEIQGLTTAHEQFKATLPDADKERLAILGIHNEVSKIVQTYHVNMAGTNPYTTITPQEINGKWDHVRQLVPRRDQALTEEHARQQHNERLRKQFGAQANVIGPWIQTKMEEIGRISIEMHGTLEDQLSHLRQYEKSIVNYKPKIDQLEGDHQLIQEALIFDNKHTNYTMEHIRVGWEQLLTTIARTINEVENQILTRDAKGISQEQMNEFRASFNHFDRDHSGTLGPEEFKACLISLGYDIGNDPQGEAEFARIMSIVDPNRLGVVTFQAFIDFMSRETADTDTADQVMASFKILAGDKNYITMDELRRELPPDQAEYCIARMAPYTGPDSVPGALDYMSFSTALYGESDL
M712T was tested, and the “effect of a mutation on the interaction” value was “with no effect”.

Source: IntAct's records for PubMed 18560563
